Experimental data taken from article PMC10996437.
Where two headings read alike, the source gives them in different places.

Columns and labels:
[1] = biological target: Poly-His tagged murine FAM72A (mouse) (UniProt Q8BFZ8); assay: BLI
[2] = biological target: Poly-His tagged murine FAM72A (mouse) (UniProt Q8BFZ8); assay: BLI; remark: listed apart in the source

UniProt Q8BFZ8, sequence (Q8BFZ8 whole entry): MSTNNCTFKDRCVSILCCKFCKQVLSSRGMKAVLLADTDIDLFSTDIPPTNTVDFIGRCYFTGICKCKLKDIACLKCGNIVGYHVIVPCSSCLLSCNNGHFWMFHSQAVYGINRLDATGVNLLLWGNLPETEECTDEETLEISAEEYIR

Kd [1]	koff [1]	Kd [2]	kon [1]	Substance
0.0019 µM	0.037 s⁻¹	0.188 µM		synthetic polypeptide containing the first 25 aa of mUNG2, C-terminal biotin
0.6 µM	0.023 s⁻¹		43000 M⁻¹ s⁻¹	murine uracil-DNA glycosylase, nuclear form (mUNG2), untagged (enzyme)
